Molecular target: human PD-L1 expressed on cell surface (human) (UniProt Q9NZQ7)
Experiment: cell-based or functional assay

Sequence of human PD-L1 expressed on cell surface (human) (Q9NZQ7 19-290 limits assumed): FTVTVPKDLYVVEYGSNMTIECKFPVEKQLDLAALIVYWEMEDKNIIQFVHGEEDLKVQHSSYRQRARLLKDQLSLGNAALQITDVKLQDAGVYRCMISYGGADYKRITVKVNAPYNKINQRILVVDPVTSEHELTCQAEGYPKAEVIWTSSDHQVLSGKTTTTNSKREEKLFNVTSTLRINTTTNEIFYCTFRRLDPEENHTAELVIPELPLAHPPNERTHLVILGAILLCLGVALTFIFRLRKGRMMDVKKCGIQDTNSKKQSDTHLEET

IC50 (nM), Promega PD-1/PD-L1 blockade reporter assay, another assay | Substance
0.33 nM | Atezolizumab analogue (BioIntron) (antibody)
0.68 nM | SGN-PD-L1 analogue anti-PD-L1 antibody (BioIntron)
